Test results reported in patent US20220160843A1 (priority 2019, published 2022).

B1: GN146: Modified GN4, amino acid substitutions (K99D, R115H), SEQ ID NO: 4 (protein)
chain: MRTSQRGIDLIKSFEGLRLSAYQDSVGVWTIGYGTTRGVTRYMTITVEQAERMLSNDIQRFEPELDRLAKVPLNQNQWDALMSFVYNLGAANLASSTLLDLLNKGDYQGAADQFPHWVNAGGKRLDGLVKRRAAERALFLEPLS
B2: GN150: Native lysin, WP_034684053.1/VanY, SEQ ID NO: 19 (protein, listed as Acinetobacter sp.)
chain: MSFKLGKRSLSNLEGVHPDLIKVVKRAIELTECDFTVTEGLRSKERQAQLLKEKKTTTSNSRHLTGHAVDLAAWVNNTVSWDWKYYYQIADAMKKAASELNVSIDWGGDWKKFKDGPHFELTWSKYPIKGAS
B3: GN156: Modified GN4, addition of N-terminal peptide GPRRPRRPGRRAPV, SEQ ID NO: 6 (protein)
chain: GPRRPRRPGRRAPVMRTSQRGIDLIKSFEGLRLSAYQDSVGVWTIGYGTTRGVTRYMTITVEQAERMLSNDIQRFEPELDRLAKVPLNQNQWDALMSFVYNLGAANLASSTLLKLLNKGDYQGAADQFPRWVNAGGKRLDGLVKRRAAERALFLEPLS

Columns and labels:
[1] = system: P. aeruginosa; assay: Minimal inhibitory concentration (MIC), modified CLSI broth microdilution in CAA or CAA/HuS; format: cell-based, Pseudomonas aeruginosa; conditions: for MIC (μg/mL) in CAA: CAA media
[2] = system: P. aeruginosa strain ATCC 17647; assay: Minimal Biofilm Eradicating Concentration (MBEC), Calgary Biofilm Device; format: cell-based, Pseudomonas aeruginosa; conditions: 24 h biofilm, 24 h treatment; minimum concentration removing >95% of biofilm biomass (crystal violet)
Source text: All samples were examined in triplicate.

[3] = system: P. aeruginosa; assay: Time-kill assay of GN lysin activity; format: cell-based, Pseudomonas aeruginosa; conditions: for Log10 CFU/mL T = 3 hr / Log10 CFU/mL T = l hr: lysin 10 μg/mL, T = 0 7.8; for Log10 CFU/mL T = 3 hr: buffer control 7.2, limit of detection 3.7; for Log10 CFU/mL T = l hr: buffer control 7.7
Description: All treatments were incubated at 37° C. with aeration.

[4] = system: carbapenem-resistant clinical strain, WC-452; assay: Checkerboard assay to examine synergy with antibiotics in CAA/HuS; format: cell-based, P. aeruginosa
Description: Fractional inhibitor concentration index (FICI) values were determined for all combinations; values of <0.5 indicate synergy.
The checkerboard assays is based on a modification of the CLSI method for MIC determination by broth microdilution (26, 29). Checkerboards were constructed by first preparing columns of a 96-well polypropylene microtiter plate, in which each well had the same amount of antibiotic diluted 2-fold along the horizontal axis. […] Summation fractional inhibitory concentrations (ΣFICs) were calculated for each drug and the minimum ΣFIC value (ΣFICmin) was used to determine synergy. ΣFICs were calculated as follows: ΣFIC=FIC A+FIC B, where FIC A is the MIC of each antibiotic in the combination/MIC of each antibiotic alone, and FIC B is the MIC of each GN lysin in the combination/MIC of each GN lysin alone. The combination is considered synergistic when the ΣFIC is ≤0.5, strongly additive when the ΣFIC is >0.5 to <1, additive with the ΣFIC is 1−<2, and antagonistic when the ΣFIC is ≥2.

[5] = CAA supplemented with 25% human serum
[6] = CAA/HuS, ‡ indicates bactericidal activity
[7] = HEPES buffer, ‡ indicates bactericidal activity

Molecule | MIC (μg/mL) in CAA [1] [µg/mL] | MIC (μg/mL in CAA/HuS) [1, 5] [µg/mL] | MBEC [2] [µg/mL] | Log10 CFU/mL T = 3 hr [3, 6] | Log10 CFU/mL T = l hr ([3]; CAA/HuS) [Log10 CFU/mL] | Log10 CFU/mL T = 3 hr [3, 7] | Log10 CFU/mL T = l hr [3, 7] [Log10 CFU/mL] | other results
B1 | 2 | 2 | 2 | 4.0‡ Log10 CFU/mL | 5.9 | <3.7‡ Log10 CFU/mL | 6.7 | MIC value in CAA/HuS [1, 5]: 2 µg/mL
B2 | 2 | 32 | 0.25 | <3.7‡ Log10 CFU/mL | 6.0 | <3.7‡ Log10 CFU/mL | 5.7 | bactericidal activity in the time-kill assay format ([3]; 3-hour timepoint, 10 μg/mL, in either CAA/HuS or HEPES buffer): bactericidal activity; synergy with antibiotics in the checkerboard assay [4]: synergize with a range of antibiotics; FICI, Amikacin ([4]; lysin + amikacin): 0.313; FICI, Azithromycin ([4]; lysin + azithromycin): 0.125; FICI, Aztreonam ([4]; lysin + aztreonam): 0.188; FICI, Ciprofloxacin ([4]; lysin + ciprofloxacin): 0.250; FICI, Colistin ([4]; lysin + colistin): 0.094; FICI, Fosfomycin ([4]; lysin + fosfomycin): 0.375; FICI, Gentamicin ([4]; lysin + gentamicin): 0.375; FICI, Imipenem ([4]; lysin + imipenem): 0.375; FICI, Piperacillin ([4]; lysin + piperacillin): 0.500; FICI, Rifampicin ([4]; lysin + rifampicin): 0.094; FICI, Tobramycin ([4]; lysin + tobramycin): 0.500
B3 | 32 | 2 | 0.5 | <3.7‡ Log10 CFU/mL | 5.7 | <3.7‡ Log10 CFU/mL | 5.7 | 
